From paper PMC3787073 (PLoS ONE, 2013)
Read-outs that look alike come from different tables or passages of the source.

Tests used:
Assay in all cases: enzyme inhibition kinetics (Dixon plot)
[1] = target: α-chymotrypsin from bovine pancreas (bovine)
[2] = target: α-chymotrypsin from bovine pancreas (bovine); remark: listed apart in the source
[3] = target: elastase from bovine pancreas (bovine, UniProt Q28153 27-266); conditions: both partners purified
Sequence of elastase from bovine pancreas (Q28153 27-266): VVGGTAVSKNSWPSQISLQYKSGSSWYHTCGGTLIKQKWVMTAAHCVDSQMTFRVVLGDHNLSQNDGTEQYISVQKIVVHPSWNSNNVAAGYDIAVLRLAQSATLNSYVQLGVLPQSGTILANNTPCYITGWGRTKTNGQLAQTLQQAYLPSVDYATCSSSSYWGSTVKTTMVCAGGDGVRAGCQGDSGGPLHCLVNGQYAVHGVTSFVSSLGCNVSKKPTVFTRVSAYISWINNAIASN

Row | Molecule | Ki [1] | Ki [2] | Ki [3]
1 | Recombinant Sc-KU-4 (BPTI-Kunitz family serine protease inhibitor of Steinernema carpocapsae) (from UniProt E2IPQ6) (natural protein) | 1.8 nM | 2.6 nM | 
2 | Recombinant Sc-KU-4 (BPTI-Kunitz family serine protease inhibitor of Steinernema carpocapsae) (natural protein, not shown: His6, C-terminal, kept) FPLFEFNCSALKDSGSGSNVTRQFYFDPDWNTCLAFNYNGTGGNTNRFETKEDCELLCVPAGSTCKGPSKTVVQPLKEAFRCDDSVCPSTHKCLMGMVPVCCDKENQEAFNQAVADTCPDGTKADGIFDLYFRAVYAHSCEDLICDENHKCVQVNKHFAKCCSKE |  |  | 2.6 nM
